The series deals with the molecule itself. Description: cryo-EM structure; single-particle cryoEM and helical reconstruction (SPRING) of pili isolated from T. thermophilus HB27; wide and narrow filaments boxed separately from the same micrographs; atomic models built de novo.

B1: PilA4, major pilin of Thermus thermophilus HB27 (subunit of the wide type IV pilus) (natural protein, UniProt Q72JC0 7-131, looked up)
chain: FTLIELLIVIAIIAILAAVLIPNLLAARKRANDTVVTAYLNDAVKFQEMYQIDNNSYTSNQAALISLGLKSTPANVTFSIVSASANSYCMIAGHSGGTVWFAATPDKGVYKTNTAVTSSQPESCP
modifications: extra densities attributed to O-linked glycans at Ser59, Ser66 and Ser71; disulphide bond Cys89-Cys124
notes: PilA4, major type IV pilin of Thermus thermophilus HB27; mature pilin of 125 amino acids (Phe1 to Pro125) after cleavage of the class III signal peptide; all residues of the mature protein are in the model PDB 6XXD. numbers count on: the mature protein; Assembled as a helical filament (wide pilus; rise 9.33 Å, twist 92.5°); the deposited model holds 16 identical subunits; also called wide pilus …
B1: the binding result was “binds”.

B2: PilA5 (TT_C1836), pilin of Thermus thermophilus HB27 (subunit of the narrow type IV pilus) (natural protein, UniProt Q72GL2 6-116, looked up)
chain: FTLIELAIVIVIIGILVAIAVPRFVDLTDQANQANVDATAAAVRSAYAIATVQAKGIPTCDQVFANPEGGSTSGSTWTSSDNSTTVSCNASADTFTISRGGKTRTLNLTVN
modifications: extra density attributed to an O-linked glycan at Ser73; disulphide bond Cys60-Cys88
notes: 111 amino acids; all residues of the mature protein are in the model PDB 6XXE. numbers count on: the mature protein; Assembled as a helical filament (narrow pilus; rise 11.26 Å, twist 84.3°); the deposited model holds 16 identical subunits; also called Tt17; narrow pilus subunit; source: endogenous, pili isolated from T. thermophilus HB27 cells (ethanolamine buffer pH 10.5, ammonium sulfate …)
Turning to B2, the binding result was “binds”.

These data come from publication PMC7203116, “Cryo-electron microscopy reveals two distinct type IV pili assembled by the same bacterium” (Nature Communications, 2020).
